{
  "source": "patent US9441223",
  "target": "TDP-43 (Homo sapiens) (UniProt Q13148)",
  "sequence (Q13148 whole entry)": "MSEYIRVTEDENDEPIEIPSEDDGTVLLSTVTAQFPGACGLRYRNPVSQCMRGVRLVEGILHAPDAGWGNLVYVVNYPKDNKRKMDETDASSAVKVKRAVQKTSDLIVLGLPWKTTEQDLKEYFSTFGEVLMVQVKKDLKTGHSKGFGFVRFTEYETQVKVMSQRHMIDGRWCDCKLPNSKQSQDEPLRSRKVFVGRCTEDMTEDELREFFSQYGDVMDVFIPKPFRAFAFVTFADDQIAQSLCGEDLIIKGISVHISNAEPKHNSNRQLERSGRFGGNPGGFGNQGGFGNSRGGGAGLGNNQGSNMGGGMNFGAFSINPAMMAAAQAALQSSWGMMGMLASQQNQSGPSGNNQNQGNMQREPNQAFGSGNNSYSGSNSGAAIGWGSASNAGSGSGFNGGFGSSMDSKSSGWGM",
  "conditions": "reanalysis of public CLIP-seq; healthy brain; ratio rises to 2.0 in FTLD",
  "data": [
    {"sequence": "UGUGU [UGUGU pentamer motif]", "values": [
      {"measurement": "binding signal (RefGene/repeat motif enrichment ratio)", "result": 1.3}
    ]}
  ]
}
